This data set has as its system insulin.

This note sets out measurements from patent US20160282364.

As for “recombinant human IDE42-1019 (R&D Systems)”, the “degradation of insulin by IDE (HTRF insulin assay, 0.4 µg/mL IDE, 10 ng/mL insulin, 30° C., 15 min)” value is recorded as “˜75% degradation of insulin”.
